Changes are numbered by the printed parent chain. Numbers in names are those of the source.
B1: WT (protein, UniProt P48546 22-466, looked up)
Gastric inhibitory …: RAETGSKGQTAGELYQRWERYRRECQETLAAAEPPSGLACNGSFDMYVCWDYAAPNATARASCPWYLPWHHHVAAGFVLRQCGSDGQWGLWRDHTQCENPEKNEAFLDQRLILERLQVMYTVGYSLSLATLLLALLILSLFRRLHCTRNYIHINLFTSFMLRAAAILSRDRLLPRPGPYLGDQALALWNQALAACRTAQIVTQYCVGANYTWLLVEGVYLHSLLVLVGGSEEGHFRYYLLLGWGAPALFVIPWVIVRYLYENTQCWERNEVKAIWWIIRTPILMTILINFLIFIRILGILLSKLRTRQMRCRDYRLRLARSTLTLVPLLGVHEVVFAPVTEEQARGALRFAKLGFEIFLSSFQGFLVSVLYCFINKEVQSEIRRGWHHCRLRRSLGEEQRQLPERAFRALPSGSGPGEVPTSRGLSSGTLPGPGNEASRELESYC
B2: E354Q (protein)
chain: B1 Gastric inhibitory … with E333Q

Experiments:
[1] = system: wild-type and variant SNAP-GIPR in Gipr-/- mouse islets; assay: Insulin secretion from Gipr-/- mouse islets transduced with GIPR adenoviruses; format: cell-based; conditions: for GIP-induced insulin secretion: Gipr-/- islets, 11 mM glucose, 100 nM GIP; for Insulin secretion, ratio G11 + GIP / G11: Fig 6D, Gipr-/- mouse islets
Method: (§1) Isolated islets used for insulin secretion assays were treated in 1.5-ml microcentrifuge tubes. Eight-ten islets were used per well with two-three technical replicates per condition. […] At the end of the treatment, supernatants containing the secreted insulin or glucagon were collected, centrifuged at 1000g for 5 min, and transferred to fresh tubes. […] The lysates were sonicated 3× for 10 s in a water bath and centrifuged at 10,000g for 10 min, and the supernatants were collected. The samples were stored at −20°C until the insulin or glucagon concentrations were determined using an Insulin Ultra-Sensitive HTRF Assay kit (62IN2PEG, Revvity) or an HTRF Glucagon Detection Kit (62CGLPEG, Revvity) respectively, according to the manufacturer’s instructions. GraphPad Prism 9.0 was used for the generation of the standard curve and sample concentration extrapolation. The total insulin or glucagon content was calculated by adding the secreted insulin to the insulin content of the lysates, and secretion was reported as the percentage release of total. The percent secretion of islets treated with agonist was normalized to that of islets treated with vehicle and reported as a fold change.

[2] = system: wild-type and variant SNAP-GIPR in Gipr-/- mouse islets; assay: Glucagon secretion from Gipr-/- mouse islets transduced with GIPR adenoviruses; format: cell-based; conditions: for Glucagon secretion, ratio G0.5 + GIP / G0.5: Fig S6C, Gipr-/- mouse islets
Method: as §1

[3] = system: wild-type and variant SNAP-GIPR in wild-type mouse islets; assay: Insulin secretion from wild-type mouse islets transduced with GIPR adenoviruses; format: cell-based; conditions: for Insulin secretion, ratio G11 + GIP / G11: Fig 6F
Method: as §1, with “The samples were stored at −20°C until the insulin or glucagon concentrations were determined using an Insulin Ultra-Sensitive HTRF Assay kit (62IN2PEG, Revvity) or an HTRF Glucagon Detection Kit (62CGLPEG, Revvity) respectively, according to the manufacturer’s instructions.” left out

[4] = system: wild-type and variant SNAP-GIPR; assay: Constitutive and agonist-mediated internalization, reversible SNAP-tag labelling, INS-1 cells; format: cell-based, human; set-up: key to Internalisation, GIP-only / Internalisation, Vehicle / Internalisation, +GIP: % internalization: residual fluorescence after Mesna vs pre-Mesna; conditions: Mean; for +GIP internalisation (100 nM) / GIP-specific internalisation (100 nM) / Constitutive internalisation (100 nM): Fig 4G; for +GIP internalisation (100 nM) / GIP-specific internalisation (100 nM): GIP 100 nM; for Internalisation, +GIP / Internalisation, GIP-only / Internalisation, Vehicle: Fig S4C, INS-1
Procedure, shortened: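 Percentage internalization is read as the fraction of specific SNAP fluorescence that survives Mesna stripping, compared with the image taken before Mesna. Wells are imaged in TNE buffer at pH 8.6 and again after 10 min.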

[5] = system: wild-type and variant SNAP-GIPR in Gipr-/- mouse islets; assay: Surface SNAP-GIPR expression in pancreatic islets; format: cell-based, human; conditions: Fig 6B
Method: Islets were purified from Gipr^−/− mice as described in the “Islet isolation and culture” section. Islets were transduced with adenoviral wild-type or variant SNAP-tagged GIPR constructs (VectorBuilder) per the manufacturer’s instructions. All variants were tested in parallel on each occasion to control for transduction efficiency. Twenty-four hours posttransduction, whole, intact islets were labeled with SNAP-Surface Alexa Fluor 647 for 15 min at 37°C. Following labeling, the islets were placed in a drop of PBS in the center of a glass-bottom MatTek dish and imaged on a Zeiss LSM 780 inverted confocal microscope fitted with a 63X/1.4 NA oil immersion objective. Receptor surface levels were quantified in Fiji using a macro using full width at half maximum (FWHM) designed by the Facility for Imaging and Light Microscopy (FILM) at Imperial College London and expressed relative to wild-type GIPR. In additional experiments, islets transduced as above and labeled with SNAP-Surface-647 were fixed in 4% paraformaldehyde, permeabilized in 0.5% (v/v) Triton X-100 in PBS (15 min), washed once with PBS and incubated in blocking buffer (PBS and 1% BSA) for 1 hour, and incubated overnight at 4°C in primary antibodies against insulin (1:50; Dako IR002, Agilent Technologies) and glucagon (1:500; G2654, Sigma-Aldrich) in blocking buffer.

Molecule | +GIP internalisation (100 nM) [4] | GIP-specific internalisation (100 nM) [4] | Constitutive internalisation (100 nM) [4] | Internalisation, +GIP [4] | Internalisation, GIP-only [4] | Internalisation, Vehicle [4] | Surface SNAP-GIPR expression in pancreatic islets ([5]; replicate 1) | Surface SNAP-GIPR expression in pancreatic islets ([5]; replicate 2) | Surface SNAP-GIPR expression in pancreatic islets ([5]; replicate 3) | Surface SNAP-GIPR expression in pancreatic islets ([5]; replicate 4) | Surface SNAP-GIPR expression in pancreatic islets ([5]; replicate 5) | also measured
CC[C@H](C)[C@H](NC(=O)[C@H](CO)NC(=O)[C@H](Cc1ccc(O)cc1)NC(=O)[C@H](CC(=O)O)NC(=O)[C@H](CO)NC(=O)[C@@H](NC(=O)[C@H](Cc1ccccc1)NC(=O)[C@@H](NC(=O)CNC(=O)[C@H](CCC(=O)O)NC(=O)[C@H](C)NC(=O)[C@@H](N)Cc1ccc(O)cc1)[C@@H](C)O)[C@@H](C)CC)C(=O)N[C@@H](C)C(=O)N[C@@H](CCSC)C(=O)N[C@@H](CC(=O)O)C(=O)N[C@@H](CCCCN)C(=O)N[C@H](C(=O)N[C@@H](Cc1c[nH]cn1)C(=O)N[C@@H](CCC(N)=O)C(=O)N[C@@H](CCC(N)=O)C(=O)N[C@@H](CC(=O)O)C(=O)N[C@@H](Cc1ccccc1)C(=O)N[C@H](C(=O)N[C@@H](CC(N)=O)C(=O)N[C@@H](Cc1c[nH]c2ccccc12)C(=O)N[C@@H](CC(C)C)C(=O)N[C@@H](CC(C)C)C(=O)N[C@@H](C)C(=O)N[C@@H](CCC(N)=O)C(=O)N[C@@H](CCCCN)C(=O)NCC(=O)N[C@@H](CCCCN)C(=O)N[C@@H](CCCCN)C(=O)N[C@@H](CC(N)=O)C(=O)N[C@@H](CC(=O)O)C(=O)N[C@@H](Cc1c[nH]c2ccccc12)C(=O)N[C@@H](CCCCN)C(=O)N[C@@H](Cc1c[nH]cn1)C(=O)N[C@@H](CC(N)=O)C(=O)N[C@H](C(=O)N[C@H](C(=O)N[C@@H](CCC(N)=O)C(=O)O)[C@@H](C)O)[C@@H](C)CC)C(C)C)[C@@H](C)CC [GIP, glucose-dependent insulinotropic polypeptide, reference compound] | – | – | – | – | – | – | – | – | – | – | – | GIP-induced insulin secretion ([1]; 30 min, E354Q vs wild-type): blunted insulinotropic response; GIP-induced insulin secretion ([1]; R101H and E288G, not significant): apparent reduced GIP-induced insulin secretion; GIP-induced insulin secretion ([1]; R190Q, statistically significant): reduced GIP-induced insulin secretion; glucagon release ([2]; Gipr-/- islets, 0.5 mM glucose, each variant vs wild type): apparent but nonstatistically significant reduction in glucagon release; GIP-induced insulin secretion ([3]; 11 mM glucose, particularly E354Q and R190Q, not significant): tendency toward reduced responses to GIP stimulation
B1 | 0.7446 | 0.2047 | 0.5399 | 51.1244 | 14.2697 | 36.8547 | 1.958 | 2.33 | 2.173 | 3.278 | 3.132 | –
B2 | 0.4403 | 0.1518 | 0.2885 | 61.4683 | 21.0467 | 40.4217 | 1.913 | 1.476 | 1.8301 | 2.1125 | 2.267 | Insulin secretion, ratio G11 + GIP / G11 ([1]; replicate 1): 1.276; Insulin secretion, ratio G11 + GIP / G11 ([1]; replicate 2): 0.2979; Insulin secretion, ratio G11 + GIP / G11 ([1]; replicate 3): 1.231; Insulin secretion, ratio G11 + GIP / G11 ([1]; replicate 4): 1.587; Glucagon secretion, ratio G0.5 + GIP / G0.5 ([2]; replicate 1): 0.6783; Glucagon secretion, ratio G0.5 + GIP / G0.5 ([2]; replicate 2): 1.215; Glucagon secretion, ratio G0.5 + GIP / G0.5 ([2]; replicate 4): 1.495; Insulin secretion, ratio G11 + GIP / G11 ([3]; replicate 1): 0.7071; Insulin secretion, ratio G11 + GIP / G11 ([3]; replicate 2): 0.9219; Insulin secretion, ratio G11 + GIP / G11 ([3]; replicate 3): 0.7382; Insulin secretion, ratio G11 + GIP / G11 ([3]; replicate 4): 0.5337; Insulin secretion, ratio G11 + GIP / G11 ([3]; replicate 5): 0.4605

From publication PMC13544220, “Glycemic and bodyweight effects of GIPR coding variation reflect differences in surface expression and intrinsic functional impairment” (Science Advances, 2026)
